Data as given in patent US20110091971A1, “Differentiation of Pluripotent Stem Cells” (priority 2008, published 2011).
Changes are numbered by the printed parent chain.

B1: ACTN64: activin A variant peptide, SEQ ID 65 (protein)
chain: GLECDGKVNICCKKQSFGQTKDIGWNDWIIAPSGYHGGGCSGECPSHIAGTSGSSLSFHSTVINHYRMRGHSPWANLKSCCSPTKLRPMSMLYYDDGQNIIKKDIQGMVVEECGCT
B2: ACTN84: activin A variant peptide, SEQ ID 85 (protein)
chain: B1 chain with T20A, W74F, G107N
B3: ACTN79: activin A variant peptide, SEQ ID 80 (protein)
chain: B1 chain with T20A, S41T, G107R
B4: ACTN90: activin A variant peptide, SEQ ID 91 (protein)
chain: B1 chain with G39S, W74F, G107N, V109K
B5: ACTN89: activin A variant peptide, SEQ ID 90 (protein)
chain: B1 chain with S16L, W74N, G107N, V109K
B6: ACTN75: activin A variant peptide, SEQ ID 76 (protein)
chain: B1 chain with T20A, G107R, V109K
B7: ACTN87: activin A variant peptide, SEQ ID 88 (protein)
chain: B1 chain with T20A, G39S, W74F, G107N
B8: ACTN71: activin A variant peptide, SEQ ID 72 (protein)
chain: B1 chain with T20A, S41T, W74F, G107N, V109K
B9: ACTN76: activin A variant peptide, SEQ ID 77 (protein)
chain: B1 chain with S16L, W74N, V109K
B10: ACTN24: activin A variant peptide, SEQ ID 25 (protein)
chain: GLECDGKVNLCCKKQDFVSFKDIGWNDWIIAPSGYHANRCSGRCPSHIAGTSGSSLSFHSTVINHYRMRGHSPFSDMGSCCVPTKLRPMSMLYYDDGQNIIKKDIQNMIVEECGCS
B11: ACTN29: activin A variant peptide, SEQ ID 30 (protein)
chain: B10 chain with D16L, R39H, R43K, V82I
B12: ACTN30: activin A variant peptide, SEQ ID 31 (protein)
chain: B10 chain with L10Y, D16N, R39K, R43L, D76K, S79A
B13: ACTN26: activin A variant peptide, SEQ ID 27 (protein)
chain: B10 chain with D16H, S41D, R43K, S75A, D76N, S79A, V82I
B14: ACTN25: activin A variant peptide, SEQ ID 26 (protein)
chain: B10 chain with D16N, R39E, R43L, D76Q, V82I

Tested on: H1 or H9 human embryonic stem cells
Experiment: Activin A bioassay: differentiation of human embryonic stem cells to definitive endoderm, cell number and SOX17 intensity by high content analysis (96-well, four days);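 on Cell Number average: Raw total cell count per well from high content imaging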;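 on Sox 17 Intensity average: total fluorescence of the cell multiplied by cell area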
Format: cell-based
Settings: supernatant concentration 1x, assay dilution 1:20
Description: Activin A is an important mediator of differentiation in a broad range of cell types. […] A bioassay that measures this differentiation in human embryonic stem cells was adapted in miniaturized format to 96-well plates for screening purposes. Validation was completed using treatment with commercial sources of activin A and Wnt3a recombinant proteins and measuring protein expression of the transcription factor SOX17, which is considered a representative marker of definitive endoderm.
Live Cell Assay: Briefly, clusters of H1 or H9 human embryonic stem cells were grown on growth factor-reduced MATRIGEL™ (Invitrogen; Cat #356231)-coated tissue culture plastic. Cells were passaged using collagenase (Invitrogen; Cat # Cat #17104-019) treatment and gentle scraping, washed to remove residual enzyme, and plated in a ratio of 1:1 (surface area) on growth factor-reduced MATRIGEL™-coated 96-well plates (black, 96-well; Packard ViewPlates; Cat #6005182). Cells were allowed to attach as clusters and then recover log phase growth over a 1 to 3 day period, feeding daily with MEF conditioned medium supplemented with 8 ng/ml bFGF (R&D Systems; Cat #233-FB).
The assay was initiated by washing the wells of each plate twice in PBS and followed by adding an aliquot (100 μl) of test sample in DMEM:F12 basal medium (Invitrogen; Cat #11330-032) to each well. Test conditions were performed in triplicate, feeding […] by aspirating and replacing the medium from each well with test samples over a total four day assay period. On the first and second day of assay, test samples added to the assay wells were diluted in DMEM:F12 with 0.5% FCS (HyClone; Cat #SH30070.03) and 20 ng/ml Wnt3a (R&D Systems; Cat #1324-WN). On the third and fourth day of assay, test samples added to the assay wells were diluted in DMEM:F12 with 2% FCS, without any Wnt3a. Positive control samples consisted of recombinant human activin A (Peprotech; Cat #120-14) added at a concentration of 100 ng/ml throughout assay plus Wnt3a (20 ng/ml) on days 1 and 2. Negative control samples omitted treatment with both activin A and Wnt3a.
High Content Analysis: At the conclusion of four days of culture, assay plates were washed twice with PBS, fixed with 4% paraformaldehyde at room temperature for 20 minutes, then washed three times with PBS and permeabilized with 0.5% Triton X-100 for 20 minutes at room temperature. Cells were washed again three times with PBS and blocked with 4% chicken serum (Invitrogen; Cat #16110082) in PBS for 30 minutes at room temperature. Primary antibody (goat anti-human SOX17; R&D Systems; cat #AF1924) was diluted 1:100 in 4% chicken serum and added to each well for one hour at room temperature. Alexa Fluor 488 conjugated secondary antibody (chicken anti-goat IgG; Molecular Probes; Cat #) was diluted 1:200 in PBS and added to each sample well after washing three times with PBS. To counterstain nuclei, 4 μg/ml Hoechst 33342 (Invitrogen; Cat #H3570) was added for ten minutes at room temperature. Plates were washed once with PBS and left in 100 μl/well PBS for imaging.
Imaging was performed using an IN Cell Analyzer 1000 (GE Healthcare) utilizing the 51008bs dichroic for cells stained with Hoechst 33342 and Alexa Fluor 488. Exposure times were optimized from positive control wells and from untreated negative control wells stained with secondary antibody alone. Images from 15 fields per well were acquired to compensate for any cell loss during the bioassay and subsequent staining procedures. Measurements for total cell number and total SOX17 intensity were obtained from each well using IN Cell Developer Toolbox 1.7 (GE Healthcare) software. Segmentation for the nuclei was determined based on grayscale levels (baseline range 100-300) and nuclear size. Averages and standard deviations were calculated for each replicate data set. […]

Molecule | Cell Number average | Sox 17 Intensity average
B1 | 2415 | 1.30E+06
B2 | 1976 | 3.37E+05
B3 | 2958 | 4.07E+05
B4 | 1727 | 1.34E+06
B5 | 5495 | 3.63E+05
B6 | 2873 | 1.81E+05
B7 | 1548 | 5.85E+05
B8 | 1621 | 2.45E+05
B9 | 3613 | 9.19E+05

Same assay, conditions: supernatant concentration 1x, assay dilution 1:20; control = R&D Sys Activin A 100 ng/ml on same plate

Molecule | Sox 17 Intensity % of control
B1 | 4.4%
B2 | 1.5%
B3 | 1.8%
B4 | 5.9%
B5 | 1.6%
B6 | 0.8%
B7 | 2.6%
B8 | 0.8%
B9 | 4.0%

Same assay, conditions: supernatant concentration 10x, assay dilution 1:20

Molecule | Cell Number average | Sox 17 Intensity average
B1 | 2215 | 1.55E+06
B2 | 2272 | 2.65E+05
B3 | 7704 | 3.83E+05
B4 | 2819 | 4.13E+05
B5 | 5558 | 5.77E+05
B6 | 3867 | 3.91E+05
B7 | 3258 | 7.89E+05
B8 | 3909 | 3.61E+05
B9 | 4732 | 1.43E+06

Same assay, conditions: supernatant concentration 10x, assay dilution 1:20; assay plates #007, #009, #010

Molecule | Cell Number average | Sox 17 Intensity average
B10 | 3261 | 2.91E+06
B11 | 8943 | 5.13E+07
B12 | 7357 | 6.73E+05
B13 | 4250 | 5.92E+05
B14 | 5043 | 3.55E+06

Same assay, conditions: supernatant concentration 10x, assay dilution 1:20; control = R&D Sys Activin A 100 ng/ml on same plate

Molecule | Sox 17 Intensity % of control
B10 | 13.2%
B11 | 232.0%
B12 | 3.0%
B13 | 2.7%
B14 | 16.1%
B1 | 5.2%
B2 | 1.2%
B3 | 1.7%
B4 | 1.8%
B5 | 2.5%
B6 | 1.7%
B7 | 3.4%
B8 | 1.2%
B9 | 6.2%

Same assay, conditions: supernatant concentration 10x, assay dilution 1:40

Molecule | Cell Number average | Sox 17 Intensity average
B1 | 2688 | 1.12E+06
B2 | 5228 | 8.40E+05
B3 | 2486 | 6.19E+04
B4 | 3042 | 1.33E+06
B5 | 4474 | 7.23E+05
B6 | 3641 | 1.24E+06
B7 | 3613 | 3.99E+05
B8 | 1970 | 1.01E+06
B9 | 7608 | 7.54E+05

Same assay, conditions: supernatant concentration 10x, assay dilution 1:40; control = R&D Sys Activin A 100 ng/ml on same plate

Molecule | Sox 17 Intensity % of control
B1 | 3.8%
B2 | 3.7%
B3 | 0.3%
B4 | 5.8%
B5 | 3.2%
B6 | 5.4%
B7 | 1.7%
B8 | 3.4%
B9 | 3.3%

Same assay, conditions: supernatant concentration 50x, assay dilution 1:20; assay plates #008, #009

Molecule | Cell Number average | Sox 17 Intensity average
B10 | 4785 | 1.04E+07
B11 | 8835 | 1.03E+08
B12 | 5013 | 2.87E+06
B13 | 5043 | 4.78E+06
B14 | 4620 | 1.52E+07

Same assay, conditions: supernatant concentration 50x, assay dilution 1:20; control = R&D Sys Activin A 100 ng/ml on same plate

Molecule | Sox 17 Intensity % of control
B10 | 18.8%
B11 | 186.2%
B12 | 5.2%
B13 | 8.6%
B14 | 27.6%
